B1: Gga2p VHS-GAT-His6 (domain or fragment, yeast, UniProt P38817 1-336, looked up)
chain: MSHPHSHSIYLSELPVRKPQALGNPLLRKIQRACRMSLAEPDLALNLDIADYINEKQGAAPRDAAIALAKLINNRESHVAIFALSLLDVLVKNCGYPFHLQISRKEFLNELVKRFPGHPPLRYSKIQRLILTAIEEWYQTICKHSSYKNDMGYIRDMHRLLKYKGYAFPKISESDLAVLKPSNQLKTASEIQKEQEIAQAAKLEELIRRGKPEDLREANKLMKIMAGFKEDNAVQAKQAISSELNKLKRKADLLNEMLESPDSQNWDNETTQELHSALKVAQPKFQKIIEEEQEDDALVQDLLKFNDTVNQLLEKFNLLKNGDSNAASQIHPSHVS
B2: S780D GST-Kex2p C-tail fusion protein (domain or fragment, yeast, UniProt P13134 700-814, looked up)
chain: KSRRRIRRSRAETYEFDIIDTDSEYDSTLDNGTSGITEPEEVEDFDFDLSDEDHLASLSSSENGDAEHTIDSVLTNENPFDDPIKQKFPNDANAESASNKLQELQPDVPPSSGRS

Assay [1] addresses S780A GST-Kex2p C-tail fusion protein (yeast) (UniProt P13134). As to the kind of experiment: ITC. On the technique in general: ITC needs no label: the signal is the heat of the interaction.
The target is the same in assay [2]. The assay is described as follows: pull-down.
Assay [3] concerns the target B2. As to the kind of experiment: pull-down.
Assay [4] has as its target B1. As to the kind of experiment: ITC.
For assay [5], the target named is B1. The assay is described as follows: pull-down.

This is an account of results in publication PMC3571872 (Molecular Biology of the Cell, 2013).

Square brackets hold non-standard residues; d marks the D form. pS = N[C@@H](COP(=O)(O)O)C(=O)O

A word on the Kd: it is a measure of binding affinity in units of concentration. A higher Kd goes with weaker binding. As to “Gga2p VHS-GAT-His6 (from UniProt P38817 1-336) (domain or fragment)”, the Kd in assay [1] was found to be 400 µM. In assay [2], the fold lower binding than the WT tail is 2 fold and the t1/2 of dissociation was found to be 40 min.

In the case of B1, in assay [3], the “fold higher binding than the WT tail” value is 2 fold.

B2: in the assay with Gga2p VHS-GAT-His6 [4], the dissociation constant Kd was 6.6 µM.

B3: WT GST-Kex2p C-tail fusion protein (domain or fragment, yeast, UniProt P13134 700-814, looked up)
chain: KSRRRIRRSRAETYEFDIIDTDSEYDSTLDNGTSGITEPEEVEDFDFDLSDEDHLASLSSSENGDAEHTIDSVLTNENPFSDPIKQKFPNDANAESASNKLQELQPDVPPSSGRS
In the assay with Gga2p VHS-GAT-His6 [4], B3 gave a dissociation constant Kd of 10 µM.

For Ac-CLTNENPFSDPIKQKF-NH2 [Nonphosphorylated peptide NPP], in the assay with Gga2p VHS-GAT-His6 [5], the binding result is recorded as “binds”.

B4: Phosphopeptide PP2 (peptide)
peptide: Ac-CTNENPF[pS]DPIKQKF-NH2
SMILES: CC[C@H](C)[C@H](NC(=O)[C@@H]1CCCN1C(=O)[C@H](CC(=O)O)NC(=O)[C@H](COP(=O)(O)O)NC(=O)[C@H](Cc1ccccc1)NC(=O)[C@@H]1CCCN1C(=O)[C@H](CC(N)=O)NC(=O)[C@H](CCC(=O)O)NC(=O)[C@H](CC(N)=O)NC(=O)[C@@H](NC(=O)[C@H](CS)NC(C)=O)[C@@H](C)O)C(=O)N[C@@H](CCCCN)C(=O)N[C@@H](CCC(N)=O)C(=O)N[C@@H](CCCCN)C(=O)N[C@@H](Cc1ccccc1)C(N)=O
As for B4, the binding result in the assay with Gga2p VHS-GAT-His6 [5] is given as “binds”.
